Data: patent US20250108096A1, “ALCOHOL CLEANSING METHODS” (Aperiam Bio, Inc., priority 2023, published 2025)

Legend:
Format in all cases: in vivo
[1] = system: ethanol levels in circulation; assay: Circulating ethanol levels after acute ethanol intoxication, ADH delivered to mouse lung (Example 1); settings: mice
Procedure: Enzyme and Enzyme Solution: Alcohol dehydrogenase (ADH) from Saccharomyces cerevisiae lyophilized powder), ≥300 units/mg protein, was utilized (Sigma-Aldrich; A7011). NAD^+ utilized was obtained commercially (Sigma-Aldrich; SKU 10127965001). Enzyme solution was prepared by diluting 100 mg of ADH in 2 mL of phosphate buffered saline (PBS) on the day the study protocol began. The Enzyme plus NAD^+ solution was prepared by diluting 100 mg of ADH and 100 mg of NAD^+ in 2 mL of PBS.
Ethanol Solution: Non-denatured ethanol was diluted to a 20% weight/volume solution with PBS (4.3M ethanol solution).
Blood Draw Dilution: Blood was drawn from mice at time points zero, 30 minutes, 1 hour and/or 4 hours after ethanol gavage (FIG. 2) and diluted 100× in buffer. The blood was processed for plasma, 50 μl of blood from the tail vein at each time point was collected using 125 μl heparinized capillary tube (Fisher Sci Cat #14-915-64). Using a pipette the heparinized blood was forced out by air of the capillary tube and into a 0.6 ml mct. The tubes were kept on ice and subsequently spun down to recover the plasma. Plasma was removed and placed into a new tube and kept on ice until needed for the same day assay. […]
Ethanol Detection: Ethanol was detected using the Sigma-Aldrich Ethanol Assay Kit (MAK076) according to the manufacturer's protocol for colorimetric detection. […]

[2] = system: ethanol levels in circulation; assay: Alcohol clearance in mice by pulmonary delivery of ADH, Abcam Ethanol Detection kit (Example 2); settings: protocol of Example 1, FIG. 5
Procedure: However, the Abcam Ethanol Detection kit was utilized for ethanol detection and the experimental group delivered ADH and NAD^+ were administered 1 mg ADH, 0.15 mmole NAD^+ (as opposed to 2 mg ADH, 0.15 mmole NAD^+ utilized in Example 1).

[3] = system: ethanol levels in circulation; assay: Blood ethanol in mice after intratracheal commercial ADH and ALDH (Example 5); settings: 4 g/kg ethanol oral gavage, intratracheal 60 minutes later: 2 mg or 600 U ADH, 10 mg or 20 U ALDH, each with 0.15 mmol NAD+, 2 mice per group, FIG. 6
Procedure: Enzyme and Enzyme Solution: Alcohol dehydrogenase (ADH) from Saccharomyces cerevisiae lyophilized powder), ≥300 units/mg protein, was utilized (Sigma-Aldrich; A7011). NAD utilized was obtained commercially (Sigma-Aldrich; SKU 10127965001). The Enzyme plus NAD solution was prepared by diluting 100 mg of ADH and 100 mg of NAD in 2 mL of PBS. ADH plus NAD^+ solution was prepared by diluting 100 mg of ADH plus 100 mg NAD^+ in 2 mL of phosphate buffered saline (PBS) on the day the study protocol began.
Aldehyde dehydrogenase (ALDH) (lyophilized powder), ≥2.0 units/mg protein potassium-activated, 50 mg total (Cymit; CAS: 9028-88-0) was utilized. ALDH plus NAD^+ solution was prepared by diluting 50 mg ALDH and 100 mg NAD^+ in 0.500 mL of PBS on the day the study protocol began. Any unused ALDH plus NAD^+ solution was stored in a −80° C.
(§1) Ethanol Solution: Non-denatured ethanol was diluted to a 70% volume/volume solution.
(§2) Ethanol Detection: Ethanol was detected using the Sigma-Aldrich Ethanol Assay Kit (MAK076) according to the manufacturer's protocol for colorimetric detection. Several dilutions for a 5 μL blood draw were tested to ensure the sample was within the linear range of the standard curve. Working in a lab space exposed to ethanol vapors was avoided. […]

[4] = system: ethanol levels in circulation; assay: Blood ethanol in mice after intratracheal yeast ADH and human ALDH2 variant (Example 6); settings: 2 g/kg ethanol oral gavage, intratracheal 60 minutes later: 2 mg or 600 U ADH, 0.15 mmol NAD+, with or without 1.2 mg variant ALDH, 2 mice per group, FIG. 7
Procedure: Enzyme and Enzyme Solution: Alcohol dehydrogenase (ADH) from Saccharomyces cerevisiae lyophilized powder), ≥300 units/mg protein, was utilized (Sigma-Aldrich; A7011). NAD^+ utilized was obtained commercially (Sigma-Aldrich; SKU 10127965001). The Enzyme plus NAD^+ solution was prepared by diluting 100 mg of ADH and 100 mg of NAD^+ in 2 mL of PBS. ADH plus NAD^+ solution was prepared by diluting 200 mg of ADH plus 200 mg NAD^+ in 2 mL of phosphate buffered saline (PBS) on the day the study protocol began. A variant of human ALDH was utilized.
as §1
Ethanol Detection: Ethanol was detected using the Abcam Ethanol Assay Kit (ab65343) according to the manufacturer's protocol for colorimetric detection. Several dilutions for a 5 μL blood draw were tested to ensure the sample was within the linear range of the standard curve. Working in a lab space exposed to ethanol vapors was avoided.
To evaluate the combined effect of ADH and a variant ALDH enzyme delivery to the lungs of mice on ethanol levels in circulation after acute ethanol intoxication, ethanol control and experimental group mice were administered 2 g/kg ethanol by oral gavage (90 μL of 70% ethanol solution for a 25 g mouse) at time one. […]

[5] = system: ethanol levels in circulation; assay: Blood ethanol in mice after intratracheal ADH, variant ALDH and variant NOX (Example 7); settings: 2 g/kg ethanol oral gavage, intratracheal 60 minutes later: 300 μg ADH, 2.52 mg variant ALDH, 250 μg variant NOX, no NAD+, 2 mice per group, FIG. 8
Procedure: Enzyme and Enzyme Solution: Alcohol dehydrogenase (ADH) from Saccharomyces cerevisiae lyophilized powder), ≥300 units/mg protein, was utilized (Sigma-Aldrich; A7011). ADH solution was prepared by diluting 200 mg of ADH in 2 mL of phosphate buffered saline (PBS) on the day the study protocol began. A variant of human ALDH (hALDH2) and a variant of the Lactobacillus brevis NOX enzyme were utilized. The variant hALDH2 and variant NOX enzymes were generated in Escherichia coli and each comprise an N-terminal HIS-tag to facilitate purification. A variant hALDH2 solution was prepared at a concentration of 60 mg/mL and a variant NOX solution was prepared at 50 mg/mL.
as §1, §2

B1: Alcohol dehydrogenase (ADH) from Saccharomyces cerevisiae (protein, UniProt P00330 2-348, looked up)
Alcohol dehydrogenase 1: SIPETQKGVIFYESHGKLEYKDIPVPKPKANELLINVKYSGVCHTDLHAWHGDWPLPVKLPLVGGHEGAGVVVGMGENVKGWKIGDYAGIKWLNGSCMACEYCELGNESNCPHADLSGYTHDGSFQQYATADAVQAAHIPQGTDLAQVAPILCAGITVYKALKSANLMAGHWVAISGAAGGLGSLAVQYAKAMGYRVLGIDGGEGKEELFRSIGGEVFIDFTKEKDIVGAVLKATDGGAHGVINVSVSEAAIEASTRYVRANGTTVLVGMPAGAKCCSDVFNQVVKSISIVGSYVGNRADTREALDFFARGLVKSPIKVVGLSTLPEIYEKMEKGQIVGRYVVDTSK
notes: Commercial yeast alcohol dehydrogenase, lyophilized powder, ≥300 units/mg protein (Sigma-Aldrich; A7011)
blood alcohol levels relative to animals that were not administered ADH ([1]; ethanol 2 g/kg oral gavage, ADH intratracheally 15 minutes after gavage, blood at 30 minutes, 1 hour, 4 hours, FIG. 3): reduced | circulating ethanol levels relative to control ([1]; ethanol by oral gavage, intratracheal administration of ADH, FIG. 1): reduced | blood alcohol levels relative to animals that were not administered ADH [2]: reduced | effect on removing alcohol (blood ethanol level) [3]: stronger effect on removing alcohol compared to ALDH alone | amount of alcohol in the blood [4]: lowered the amount of alcohol in the blood | amount of alcohol in the blood [5]: lowered the amount of alcohol in the blood
